In the data set the test system is Escherichia coli TOP10. Kind of data set: shrunken log2 fold change of peptide-encoding DNA abundance (4.5 h post-induction vs induction); higher = less antimicrobial activity (less host growth inhibition). Conditions: time post-induction: 4.5 h; library: site-saturation at positions 5, 18, 19, 20.
Regarding RRIRNRPPRLPRPRPRPSQVPRP, the “shrunken log2 fold change” value was -0.0797.
For the sequence RRIRTRPPRLPRPRPRPPFAPRP, the “shrunken log2 fold change” value amounted to 0.195.
RRIRFRPPRLPRPRPRPPEYPRP: the “shrunken log2 fold change” value is -0.0154.
Under RRIRPRPPRLPRPRPRPLKVPRP stands -0.107.
As for RRIRRRPPRLPRPRPRPLRGPRP, the “shrunken log2 fold change” value turned out to be 0.732.
Under RRIRERPPRLPRPRPRPCIFPRP stands -0.749; under RRIRMRPPRLPRPRPRPRRLPRP, 0.817.
Consider RRIRGRPPRLPRPRPRPFVWPRP, for which the “shrunken log2 fold change” value is 0.278.
Under RRIRCRPPRLPRPRPRPLDDPRP stands -0.119; under RRIRGRPPRLPRPRPRPAFGPRP, 0.476; under RRIRPRPPRLPRPRPRPMMKPRP, -0.173.
To RRIRTRPPRLPRPRPRPFEMPRP belongs -0.376; to RRIRKRPPRLPRPRPRPHKRPRP, 0.434.
Regarding RRIRDRPPRLPRPRPRPHYVPRP, the “shrunken log2 fold change” value is -0.0495.
To RRIRVRPPRLPRPRPRPRCNPRP belongs -0.135; to RRIRTRPPRLPRPRPRPRFIPRP, -0.806.
To RRIRYRPPRLPRPRPRPEMPPRP belongs -0.0307; to RRIRERPPRLPRPRPRPYDLPRP, -0.169; to RRIRLRPPRLPRPRPRPCLLPRP, -0.421.
Regarding RRIRMRPPRLPRPRPRPFQWPRP, the “shrunken log2 fold change” value was -0.0962.
As to RRIRARPPRLPRPRPRPMSNPRP, the “shrunken log2 fold change” value is -0.433.
Regarding RRIRPRPPRLPRPRPRPGHTPRP, the “shrunken log2 fold change” value is 0.179.
As to RRIRPRPPRLPRPRPRPEFEPRP, the “shrunken log2 fold change” value was -0.0475.
Take RRIRMRPPRLPRPRPRPPLHPRP: the “shrunken log2 fold change” value worked out at 0.691.
Under RRIRRRPPRLPRPRPRPPNQPRP stands 0.337; under RRIRFRPPRLPRPRPRPNCKPRP, -0.0929.
Regarding RRIRHRPPRLPRPRPRPAFHPRP, the “shrunken log2 fold change” value was -0.152.
Under RRIRHRPPRLPRPRPRPENTPRP stands 0.0466; under RRIRHRPPRLPRPRPRPMLNPRP, -0.114; under RRIRYRPPRLPRPRPRPESRPRP, -0.12.
Regarding RRIRNRPPRLPRPRPRPQIQPRP, the “shrunken log2 fold change” value is -0.214.
To RRIRNRPPRLPRPRPRPQDIPRP belongs -0.252.
Under RRIRIRPPRLPRPRPRPIVLPRP stands -0.181; under RRIRVRPPRLPRPRPRPVQYPRP, -0.0224; under RRIRKRPPRLPRPRPRPEAVPRP, 0.15.
Take RRIRIRPPRLPRPRPRPFAFPRP: the “shrunken log2 fold change” value was -0.155.
As for RRIRHRPPRLPRPRPRPGYLPRP, the “shrunken log2 fold change” value was -0.243.
To RRIRVRPPRLPRPRPRPNWDPRP belongs -0.0621; to RRIRGRPPRLPRPRPRPALTPRP, 0.874.
With RRIRLRPPRLPRPRPRPEYKPRP, the “shrunken log2 fold change” value is -0.438.
Under RRIRLRPPRLPRPRPRPWTLPRP stands 0.00677.
Under RRIRYRPPRLPRPRPRPQYQPRP stands -0.103; under RRIRERPPRLPRPRPRPESEPRP, 0.0931; under RRIRVRPPRLPRPRPRPCVTPRP, -0.0293.
Under RRIRFRPPRLPRPRPRPRKQPRP stands 0.415.
In the case of RRIRFRPPRLPRPRPRPLMNPRP, the “shrunken log2 fold change” value was -0.607.
RRIRCRPPRLPRPRPRPELPPRP: the “shrunken log2 fold change” value stood at 0.762.
With RRIRSRPPRLPRPRPRPTRHPRP, the “shrunken log2 fold change” value was found to be 0.227.
Under RRIRMRPPRLPRPRPRPIHFPRP stands -0.0141; under RRIRNRPPRLPRPRPRPCFQPRP, 0.012; under RRIRVRPPRLPRPRPRPPDVPRP, -0.286.
With RRIRTRPPRLPRPRPRPCFGPRP, the “shrunken log2 fold change” value came out at 0.000833.
Under RRIRVRPPRLPRPRPRPDFIPRP stands -0.396; under RRIRGRPPRLPRPRPRPVRSPRP, 0.902; under RRIRLRPPRLPRPRPRPRWCPRP, -0.0806.
In the case of RRIRVRPPRLPRPRPRPHPHPRP, the “shrunken log2 fold change” value is -0.161.
To RRIRCRPPRLPRPRPRPAPMPRP belongs 0.308.
Under RRIRWRPPRLPRPRPRPDCLPRP stands 0.166; under RRIRERPPRLPRPRPRPYAGPRP, -0.000921.
With RRIRDRPPRLPRPRPRPNVNPRP, the “shrunken log2 fold change” value is -0.166.
Under RRIRTRPPRLPRPRPRPSAFPRP stands -0.0245; under RRIRGRPPRLPRPRPRPDDDPRP, 0.0442.
With RRIRKRPPRLPRPRPRPTKPPRP, the “shrunken log2 fold change” value was 0.221.
With RRIRERPPRLPRPRPRPSMKPRP, the “shrunken log2 fold change” value is -0.607.
Under RRIRGRPPRLPRPRPRPYNSPRP stands -0.359.
As for RRIRIRPPRLPRPRPRPRWHPRP, the “shrunken log2 fold change” value is 0.139.
With RRIRTRPPRLPRPRPRPKNHPRP, the “shrunken log2 fold change” value is -0.712.
To RRIRQRPPRLPRPRPRPNFYPRP belongs -0.0848.
As for RRIRRRPPRLPRPRPRPAAEPRP, the “shrunken log2 fold change” value came out at 0.845.
As to RRIRLRPPRLPRPRPRPQDWPRP, the “shrunken log2 fold change” value is -0.104.
Under RRIRPRPPRLPRPRPRPVCVPRP stands 0.146; under RRIRMRPPRLPRPRPRPRDNPRP, 0.455; under RRIRLRPPRLPRPRPRPFPQPRP, -0.0558.
Consider RRIRGRPPRLPRPRPRPNRSPRP, for which the “shrunken log2 fold change” value is -0.0578.
For RRIRIRPPRLPRPRPRPVQCPRP, the “shrunken log2 fold change” value was 0.0517.
For the sequence RRIRCRPPRLPRPRPRPLQDPRP, the “shrunken log2 fold change” value turned out to be 0.0354.
For the sequence RRIRARPPRLPRPRPRPPELPRP, the “shrunken log2 fold change” value was 0.947.
RRIRYRPPRLPRPRPRPHEHPRP: the “shrunken log2 fold change” value was -0.0681.
Take RRIRWRPPRLPRPRPRPIFGPRP: the “shrunken log2 fold change” value worked out at 0.0623.
For RRIRERPPRLPRPRPRPMGTPRP, the “shrunken log2 fold change” value was -0.272.
To RRIRKRPPRLPRPRPRPQSVPRP belongs 0.139.
Under RRIRRRPPRLPRPRPRPWQMPRP stands 0.0303; under RRIRMRPPRLPRPRPRPWPIPRP, -0.00141.
To RRIRHRPPRLPRPRPRPQWNPRP belongs -0.281; to RRIRPRPPRLPRPRPRPENRPRP, 0.0972; to RRIRVRPPRLPRPRPRPQKRPRP, -0.0953.
For RRIRSRPPRLPRPRPRPEPYPRP, the “shrunken log2 fold change” value was 0.0691.
To RRIRWRPPRLPRPRPRPHCNPRP belongs -0.465; to RRIRKRPPRLPRPRPRPCLNPRP, 0.00932.
Under RRIRWRPPRLPRPRPRPRKSPRP stands 0.264; under RRIRFRPPRLPRPRPRPTCWPRP, 0.0659.
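Further: peptides expressed intracellularly from a pBAD plasmid library in pooled LB shake-flask culture, induced with 0.3% L-arabinose, DNA abundance read by NGS, three biological replicates, DESeq2 with apeglm shrinkage.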
